Assay results from patent publication US20090118184A1 (UNIVERSITY OF ROCHESTER, published 2009).
Numbering of substitutions follows the chain as printed.

Key:
Assay in all cases: cell-based or functional assay
[1] = target: T1, factor VIIIa A1/A3C1C2 dimer, Glu1984Val (human, UniProt P00451 20-391; P00451 1709-2351)
T1 sequence 1: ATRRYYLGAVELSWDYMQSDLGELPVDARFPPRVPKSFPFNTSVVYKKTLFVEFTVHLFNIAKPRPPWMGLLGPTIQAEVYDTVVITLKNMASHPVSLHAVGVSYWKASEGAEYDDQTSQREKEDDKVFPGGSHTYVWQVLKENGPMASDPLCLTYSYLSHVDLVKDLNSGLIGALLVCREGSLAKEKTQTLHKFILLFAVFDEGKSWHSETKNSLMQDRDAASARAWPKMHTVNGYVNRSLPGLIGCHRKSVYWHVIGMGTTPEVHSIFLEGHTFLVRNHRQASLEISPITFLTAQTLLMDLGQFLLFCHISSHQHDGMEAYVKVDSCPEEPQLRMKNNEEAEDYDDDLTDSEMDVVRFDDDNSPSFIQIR
T1 sequence 2: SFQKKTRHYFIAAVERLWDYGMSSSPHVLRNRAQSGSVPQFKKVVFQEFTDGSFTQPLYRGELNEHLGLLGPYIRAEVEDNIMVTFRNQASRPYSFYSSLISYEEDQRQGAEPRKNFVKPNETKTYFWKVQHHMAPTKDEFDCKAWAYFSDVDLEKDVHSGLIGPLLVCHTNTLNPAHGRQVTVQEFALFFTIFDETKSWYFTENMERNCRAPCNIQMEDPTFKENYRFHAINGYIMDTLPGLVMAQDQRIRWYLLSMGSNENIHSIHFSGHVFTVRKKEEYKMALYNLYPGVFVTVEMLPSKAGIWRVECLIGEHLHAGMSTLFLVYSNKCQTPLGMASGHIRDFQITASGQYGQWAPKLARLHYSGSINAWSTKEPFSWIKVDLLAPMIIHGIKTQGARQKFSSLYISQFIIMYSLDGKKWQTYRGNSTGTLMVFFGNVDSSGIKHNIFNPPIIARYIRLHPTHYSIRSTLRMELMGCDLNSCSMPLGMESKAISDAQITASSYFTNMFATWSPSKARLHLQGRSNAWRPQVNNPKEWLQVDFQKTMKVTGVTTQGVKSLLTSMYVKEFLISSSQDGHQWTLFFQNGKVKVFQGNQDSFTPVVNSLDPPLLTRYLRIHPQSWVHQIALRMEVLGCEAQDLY

[2] = target: T2, factor VIIIa A1/A3C1C2 dimer, wild type (human, UniProt P00451 20-391; P00451 1709-2351)
T2 sequence 1: T1 sequence 1
T2 sequence 2: T1 sequence 2 with V295E

[3] = target: T3, factor VIIIa A1/A3C1C2 dimer, Glu1984Ala (human, UniProt P00451 20-391; P00451 1709-2351)
T3 sequence 1: T1 sequence 1
T3 sequence 2: T1 sequence 2 with V295A

Decay rate relative to wild type, Factor VIIIa (1.5 nM, factor IXa absent) [1]: 0.34 relative to wild type
Decay rate, Factor VIIIa (1.5 nM factor VIIIa, factor IXa absent) [1]: 0.0471 min⁻¹
Decay rate relative to wild type, Factor VIIIa (1.5 nM, factor IXa absent) [2]: 1 relative to wild type
Decay rate, Factor VIIIa (1.5 nM factor VIIIa, factor IXa absent) [2]: 0.14 min⁻¹
Decay rate relative to wild type, Factor VIIIa (1.5 nM, factor IXa absent) [3]: 0.41 relative to wild type
Decay rate, Factor VIIIa (1.5 nM factor VIIIa, factor IXa absent) [3]: 0.0574 min⁻¹
B1: factor VIIIa A2 subunit, wild type (other)
chain: SVAKKHPKTWVHYIAAEEEDWDYAPLVLAPDDRSYKSQYLNNGPQRIGRKYKKVRFMAYTDETFKTREAIQHESGILGPLLYGEVGDTLLIIFKNQASRPYNIYPHGITDVRPLYSRRLPKGVKHLKDFPILPGEIFKYKWTVTVEDGPTKSDPRCLTRYYSSFVNMERDLASGLIGPLLICYKESVDQRGNQIMSDKRNVILFSVFDENRSWYLTENIQRFLPNPAGVQLEDPEFQASNIMHSINGYVFDSLQLSVCLHEVAYWYILSIGAQTDFLSVFFSGYTFKHKMVYEDTLTLFPFSGETVFMSMENPGLWILGCHNSDFRNRGMTALLKVSSCDKNTGDYYEDSYEDISAYLLSKNNAIEPR
